Molecular target: human ACE2 extracellular domain (19-615) (human) (UniProt Q9BYF1)
Assay: SPR

human ACE2 extracellular domain (19-615) (human), sequence (Q9BYF1 19-615): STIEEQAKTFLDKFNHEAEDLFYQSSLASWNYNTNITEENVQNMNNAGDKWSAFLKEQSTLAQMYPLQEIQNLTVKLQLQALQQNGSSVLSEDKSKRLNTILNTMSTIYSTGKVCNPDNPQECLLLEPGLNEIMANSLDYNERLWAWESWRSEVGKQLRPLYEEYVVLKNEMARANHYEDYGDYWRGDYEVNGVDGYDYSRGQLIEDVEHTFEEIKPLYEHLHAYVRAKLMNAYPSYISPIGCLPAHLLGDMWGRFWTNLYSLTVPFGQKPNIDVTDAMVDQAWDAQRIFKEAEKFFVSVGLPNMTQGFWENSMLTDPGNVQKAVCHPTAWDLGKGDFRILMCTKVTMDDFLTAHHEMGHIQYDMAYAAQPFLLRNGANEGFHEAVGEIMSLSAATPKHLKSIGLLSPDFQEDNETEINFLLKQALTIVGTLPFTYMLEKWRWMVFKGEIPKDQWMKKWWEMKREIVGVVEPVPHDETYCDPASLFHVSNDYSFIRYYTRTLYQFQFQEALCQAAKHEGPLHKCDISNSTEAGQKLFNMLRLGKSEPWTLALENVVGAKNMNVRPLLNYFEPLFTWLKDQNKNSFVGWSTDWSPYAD

Substance: PCoV_GX RBD (331-524) (domain or fragment)
- Kd: 2.7 nM

— publication PMC7952905
